{
  "source": "paper PMC7985572",
  "about": "“Backbone chemical shift spectral assignments of SARS coronavirus-2 non-structural protein nsp9” (Biomolecular Nmr Assignments, 2021)",
  "proteins": {"B1": {"name": "SARS-CoV-2 non-structural protein 9 (nsp9) (natural protein)", "chain": "GAMGNNELSPVALRQMSCAAGTTQTACTDDNALAYYNTTKGGRFVLALLSDLQDLKWARFPKSDGTGTIYTELEPPCRFVTDTPKGPKVKYLYFIKGLNNLNRGMVLGSLAATVRLQ", "notes": "also called non-structural protein nsp9; sample A; not shown: His6, N-terminal, cleaved; GST, N-terminal, cleaved"}},
  "molecular_target": "the molecule itself",
  "assay": "SEC",
  "data": [
    {"protein": "B1", "values": [
      {"measurement": "stoichiometry N", "value": 2}
    ]}
  ]
}
